From PMC5830917 (The EMBO Journal, 2018)

Target: T1, GFP-NBR1 (human, UniProt Q14596-1 1-966)
T1 construct: NBR1, human, ORF amplified from a HeLa cDNA library; The TEV site lies between StrepII and GFP, so the cleaved protein keeps GFP; also called 6xHis‐Strep‐TEV‐GFP‐NBR1; Strep‐TEV‐GFP‐NBR1; source: Sf9 insect cells (Bac-to-Bac), purified (HisTrap, TEV cleavage, Superose6); not shown: His6, N-terminal, cleaved; StrepII, N-terminal, cleaved; GFP (meGFP, A206K), N-terminal, kept
T1 sequence (looked up): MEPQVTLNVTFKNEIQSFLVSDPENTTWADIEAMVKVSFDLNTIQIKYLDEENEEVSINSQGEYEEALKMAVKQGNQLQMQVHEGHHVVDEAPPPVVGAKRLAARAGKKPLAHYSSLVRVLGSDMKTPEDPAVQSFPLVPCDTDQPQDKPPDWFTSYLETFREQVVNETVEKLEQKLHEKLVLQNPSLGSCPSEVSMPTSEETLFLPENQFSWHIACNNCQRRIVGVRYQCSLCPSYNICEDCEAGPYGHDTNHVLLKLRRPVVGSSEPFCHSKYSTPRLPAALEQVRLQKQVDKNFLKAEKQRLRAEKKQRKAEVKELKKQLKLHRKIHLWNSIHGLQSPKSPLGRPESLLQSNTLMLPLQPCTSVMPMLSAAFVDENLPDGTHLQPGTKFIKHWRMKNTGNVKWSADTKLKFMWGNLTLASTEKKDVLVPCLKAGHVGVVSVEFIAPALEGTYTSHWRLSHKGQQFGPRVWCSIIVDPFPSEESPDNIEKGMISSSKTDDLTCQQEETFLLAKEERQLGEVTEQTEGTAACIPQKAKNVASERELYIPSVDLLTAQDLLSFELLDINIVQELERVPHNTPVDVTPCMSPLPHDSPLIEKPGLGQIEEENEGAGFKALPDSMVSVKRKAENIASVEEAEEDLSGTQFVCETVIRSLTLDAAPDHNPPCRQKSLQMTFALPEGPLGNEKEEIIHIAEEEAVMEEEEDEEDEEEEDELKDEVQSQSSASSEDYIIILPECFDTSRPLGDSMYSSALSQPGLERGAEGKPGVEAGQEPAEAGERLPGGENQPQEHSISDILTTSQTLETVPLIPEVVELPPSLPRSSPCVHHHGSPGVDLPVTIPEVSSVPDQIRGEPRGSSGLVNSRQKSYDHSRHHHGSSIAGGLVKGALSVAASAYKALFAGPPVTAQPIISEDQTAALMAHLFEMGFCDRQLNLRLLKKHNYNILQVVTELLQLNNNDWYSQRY
Assay: microscopy-based protein-protein interaction assay on beads; GFP-NBR1 on GFP-TRAP beads; 2 μM mCherry-p62 variants at equilibrium in 25 mM HEPES pH 7.5, 150 mM NaCl, 1 mM DTT; spinning disk imaging
Conditions: both partners purified

B1: mCherry-p62 PB1 (1–102) (domain or fragment, UniProt Q13501 1-102, looked up)
chain: MASLTVKAYLLGKEDAAREIRRFSFCCSPEPEAEAEAAAGPGPCERLLSRVAALFPALRPGGFQAHYRDEDGDLVAFSSDEELTMAMSYVKDDIFRIYIKEK
notes: p62/SQSTM1, PB1 domain, residues 1-102; also called isolated PB1 domain of p62; source: recombinant, purified; site-directed mutagenesis on the plasmid for the full-length protein (pET-mCherry-p62 PB1); not shown: mCherry, N-terminal, kept
B1: binds.
